This is an account of results in US20220372147A1 (UNIVERSIT T STUTTGART, published 2022).

Like-named read-outs stand apart in the source and are kept apart here. Bounds are passed on as bounds.

In experiment [1] the target is T1, FcεRI Fc fusion protein comprising the extracellular region of FcεRI (human, UniProt P12319 26-205).
T1 construct: extracellular domain; also called FcεRT; FccRT; not shown: Fc part
T1 sequence (looked up): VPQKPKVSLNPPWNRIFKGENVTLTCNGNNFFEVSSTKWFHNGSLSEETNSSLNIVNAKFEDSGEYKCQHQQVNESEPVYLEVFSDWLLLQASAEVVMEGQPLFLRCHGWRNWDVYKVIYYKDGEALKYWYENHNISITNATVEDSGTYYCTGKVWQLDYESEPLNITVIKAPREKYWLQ
The experiment is described as follows: ELISA, immobilized FcεRI-Fc, anti-human Fab detection.

For experiment [2], the target named is EGFR (immobilized control antigen of Example 11) (UniProt P00533 25-645, limits assumed). The experiment is described as follows: ELISA at 50 nM, immobilized EGFR, anti-human Fab detection.
Experiment [3] addresses T2, His-tagged HER3 protein, extracellular domain (ECD) of HER3 (aa 21-643) (UniProt P21860 21-643).
T2 construct: range 21-643; also called HER3-His; not shown: His-tag
The experiment is described as follows: ELISA, immobilized HER3-His, anti-human Fab-HRP detection.

Another experiment has as its target T3, EGFR-moFc (UniProt P00533 25-645).
T3 construct: also called EGFR-moFc protein (second soluble antigen); not shown: murine Fc part
The experiment is described as follows: bifunctional sandwich ELISA: immobilized HER3-His, EGFR-moFc detected with anti-mouse Fc-HRP.

The target of experiment [4] is T2, His-tagged HER3 protein, extracellular …. The experiment is described as follows: bifunctional sandwich ELISA: immobilized HER3-His, titrated Fab-eFab, then EGFR-moFc as second antigen detected with anti-mouse Fc-HRP.
Experiment [5] concerns the target T4, HER3 on HER3-expressing cancer cells (LIM1215, BT474) (UniProt P21860 20-1342, limits assumed). The experiment is described as follows: cell-based or functional assay.
For experiment [6], the target named is T2, His-tagged HER3 protein, extracellular …. Description: ELISA, immobilized HER3-His, anti-human Fc-HRP detection.
For experiment [7], the target named is T4, HER3 on HER3-expressing cancer cells …. The experiment is described as follows: flow cytometry on HER3-expressing LIM1215 and BT474 cells.
The target in experiment [8] is T5, CD3 on CD3-expressing Jurkat cells (human, UniProt P07766 23-207).
T5 construct: whole, on cells
T5 sequence (P07766 23-207): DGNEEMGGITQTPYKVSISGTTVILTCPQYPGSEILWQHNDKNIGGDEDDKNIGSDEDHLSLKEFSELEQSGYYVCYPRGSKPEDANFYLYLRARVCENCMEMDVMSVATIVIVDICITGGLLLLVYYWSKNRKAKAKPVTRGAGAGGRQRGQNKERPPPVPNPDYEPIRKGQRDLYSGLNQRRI
The experiment is described as follows: flow cytometry on CD3-expressing Jurkat cells, PE anti-human Fc.

Experiment [9] deals with T4, HER3 on HER3-expressing cancer cells …. The experiment is described as follows: flow cytometry on HER3-expressing LIM1215 cells, PE anti-human Fc.
The target in experiment [10] is T5, CD3 on CD3-expressing Jurkat cells. The experiment is described as follows: flow cytometry on CD3-expressing Jurkat cells, PE anti-human Fc. This is another data set of the same source.
Experiment [11] concerns the target T4, HER3 on HER3-expressing cancer cells …. The experiment is described as follows: flow cytometry on HER3-expressing BT474 cells, PE anti-human Fc.
The target is the same in experiment [12]. Description: flow cytometry on HER3-expressing LIM1215 cells, PE anti-human Fc. The source holds these as a separate data set.

B1: bivalent and bispecific Fab-eFab molecule targeting HER3 and EGFR (bispecific antibody)
light 1: QAGLTQPPAVSVAPGQTASITCGRDNIGSRSVHWYQQKPGQAPVLVVYDDSDRPAGIPERFSGSNYENTATLTISRVEAGDEADYYCQVWGITSDHVVFGGGTKLTVLGTDFTPPTVKILQSSSDGGGHFPPTIQLLCLVSGYTPGTIQITWLEDGQVMDVDLSTASTTQEGELASTQSELTLSQKHWLSDRTYTCQVTYQGHTFEDSTKKCADSN
light 2: DIQLTQSPSFLSASVGDRVTITCRASQSIGTNIHWYQQKPGKAPKLLIKYASESISGVPSRFSGSGSGTEFTLTISSLQPEDFATYYCQQNNNWPTTFGAGTKLEIKRTVAAPSVFIFPPSDEQLKSGTASVVCLLNNFYPREAKVQWKVDNALQSGNSQESVTEQDSKDSTYSLSSTLTLSKADYEKHKVYACEVTHQGLSSPVTKSFNRGEC
heavy: EVQLVESGGGLVQPGGSLRLSCAASGFSLTNYGVHWVRQAPGKGLEWLGVIWSGGNTDYNTPFTSRFTISRDNSKNTLYLQMNSLRAEDTAVYYCARALTYYDYEFAYWGQGTTVTVSSASTKGPSVFPLAPSSKSTSGGTAALGCLVKDYFPEPVTVSWNSGALTSGVHTFPAVLQSSGLYSLSSVVTVPSSSLGTQTYICNVNHKPSNTKVDKKVEPKSCGGSGGGGSGGQVQLQQSGPGLVKPSQTLSLTCAISGDSVSSNRAAWNWIRQSPSRGLEWLGRTYYRSKWYNDYAQSLKSRITINPDTPKNQFSLQLNSVTPEDTAVYYCARDGQLGLDALDIWGQGTMVTVSSDFTPPTVKILQSSCDGGGHFPPTIQLLCLVSGYTPGTINITWLEDGQVMDVDLSTASTTQEGELASTQSELTLSQKHWLSDRTYTCQVTYQGHTFEDSTKKSADSNAAAHHHHHH
notes: No Fc region; one site for EGFR and one for HER3; C-terminal His-tag on the heavy chain; also called Fab-eFab EGFRxHER3
Consider B1, for which the binding result in experiment [1] is recorded as “no binding (tested: 50 nM)”; in [2], “binds”; in the experiment with EGFR-moFc it was “binds”. The values for the EC50 in experiment [3] and in [4] were 3.9 nM and 1.4 nM, respectively.

B2: bispecific and bivalent anti-CD3 x anti-HER3 eIgG (bispecific antibody)
light 1: QAGLTQPPAVSVAPGQTASITCGRDNIGSRSVHWYQQKPGQAPVLVVYDDSDRPAGIPERFSGSNYENTATLTISRVEAGDEADYYCQVWGITSDHVVFGGGTKLTVLGQPKAAPSVTLFPPSSEELQANKATLVCLISDFYPGAVTVAWKADSSPVKAGVETTTPSKQSNNKYAASSYLSLTPEQWKSHRSYSCQVTHEGSTVEKTVAPTECS
heavy 1: not shown
heavy 2: not shown
light 2: not shown
notes: One site for HER3 (3-43), one for CD3 (huU3, humanized UCHT1); also called eIg1; eIgl
For the molecule B2, the “EC50 value in cell killing (PBMC-mediated cytotoxicity on BT-474 cells, crystal violet)” value in experiment [5] was 3.8 nM. Moreover, in experiment [5], the “EC50 value in cell killing (PBMC-mediated cytotoxicity on LIM1215 cells, crystal violet)” value was found to be 5.8 nM. Further, the binding result in [1] is given as “no binding (tested: 50 nM)”. For the same molecule, the EC50 in [6] was found to be 2.1 nM; in experiment [8] it was 11.9 nM; in experiment [9] it was 0.4 nM; in [10] it was 5.1 nM; in experiment [11] it was 4.8 nM; in experiment [12], 4 nM. Moreover, the “factor weaker binding than the bispecific, trivalent eIg-Fab molecules” value in [7] is at most 50 fold.
